Measured values taken from patent US12679878B2, “CRF2 receptor agonists and their use in therapy” (SANOFI, priority 2020, dated 2026).
Starred links: 1 amine or outer side, 2 acyl side, 3 side chain; linkers in the order of their positions; H or OH if unused. Non-standard residues stand in square brackets, D forms with d. Groups on a side chain read outwards from the residue. No end group written: not given here. *: point of attachment. C18 diacid = O=C(O)CCCCCCCCCCCCCCCCC(=O)*; γGlu = O=C(O)[C@H](CCC(=O)[*:2])N[*:1]; Palmitoyl = CCCCCCCCCCCCCCCC(=O)*; Aib = CC(C)(N)C(=O)O

B1: peptide of SEQ ID NO: 226 (peptide)
peptide: IVLSLD[dV]PIGLK([γGlu-Palmitoyl])QKLLKQQRQRKERQQAEKNKRILERV-NH2
modifications: N-terminus assumed
SMILES: CCCCCCCCCCCCCCCC(=O)N[C@@H](CCC(=O)NCCCC[C@H](NC(=O)[C@H](CC(C)C)NC(=O)CNC(=O)[C@@H](NC(=O)[C@@H]1CCCN1C(=O)[C@H](NC(=O)[C@H](CC(=O)O)NC(=O)[C@H](CC(C)C)NC(=O)[C@H](CO)NC(=O)[C@H](CC(C)C)NC(=O)[C@@H](NC(=O)[C@@H](N)[C@@H](C)CC)C(C)C)C(C)C)[C@@H](C)CC)C(=O)N[C@@H](CCC(N)=O)C(=O)N[C@@H](CCCCN)C(=O)N[C@@H](CC(C)C)C(=O)N[C@@H](CC(C)C)C(=O)N[C@@H](CCCCN)C(=O)N[C@@H](CCC(N)=O)C(=O)N[C@@H](CCC(N)=O)C(=O)N[C@@H](CCCNC(=N)N)C(=O)N[C@@H](CCC(N)=O)C(=O)N[C@@H](CCCNC(=N)N)C(=O)N[C@@H](CCCCN)C(=O)N[C@@H](CCC(=O)O)C(=O)N[C@@H](CCCNC(=N)N)C(=O)N[C@@H](CCC(N)=O)C(=O)N[C@@H](CCC(N)=O)C(=O)N[C@@H](C)C(=O)N[C@@H](CCC(=O)O)C(=O)N[C@@H](CCCCN)C(=O)N[C@@H](CC(N)=O)C(=O)N[C@@H](CCCCN)C(=O)N[C@@H](CCCNC(=N)N)C(=O)N[C@H](C(=O)N[C@@H](CC(C)C)C(=O)N[C@@H](CCC(=O)O)C(=O)N[C@@H](CCCNC(=N)N)C(=O)N[C@H](C(N)=O)C(C)C)[C@@H](C)CC)C(=O)O
B2: peptide of SEQ ID NO: 183 (peptide)
peptide: IVLSLD[dV]PIKLK(C18 diacid)QILLKQARQK[Aib]QRAQAEKNKRILERV-NH2
modifications: N-terminus assumed
SMILES: CC[C@H](C)[C@H](N)C(=O)N[C@H](C(=O)N[C@@H](CC(C)C)C(=O)N[C@@H](CO)C(=O)N[C@@H](CC(C)C)C(=O)N[C@@H](CC(=O)O)C(=O)N[C@@H](C(=O)N1CCC[C@H]1C(=O)N[C@H](C(=O)N[C@@H](CCCCN)C(=O)N[C@@H](CC(C)C)C(=O)N[C@@H](CCCCNC(=O)CCCCCCCCCCCCCCCCC(=O)O)C(=O)N[C@@H](CCC(N)=O)C(=O)N[C@H](C(=O)N[C@@H](CC(C)C)C(=O)N[C@@H](CC(C)C)C(=O)N[C@@H](CCCCN)C(=O)N[C@@H](CCC(N)=O)C(=O)N[C@@H](C)C(=O)N[C@@H](CCCNC(=N)N)C(=O)N[C@@H](CCC(N)=O)C(=O)N[C@@H](CCCCN)C(=O)NC(C)(C)C(=O)N[C@@H](CCC(N)=O)C(=O)N[C@@H](CCCNC(=N)N)C(=O)N[C@@H](C)C(=O)N[C@@H](CCC(N)=O)C(=O)N[C@@H](C)C(=O)N[C@@H](CCC(=O)O)C(=O)N[C@@H](CCCCN)C(=O)N[C@@H](CC(N)=O)C(=O)N[C@@H](CCCCN)C(=O)N[C@@H](CCCNC(=N)N)C(=O)N[C@H](C(=O)N[C@@H](CC(C)C)C(=O)N[C@@H](CCC(=O)O)C(=O)N[C@@H](CCCNC(=N)N)C(=O)N[C@H](C(N)=O)C(C)C)[C@@H](C)CC)[C@@H](C)CC)[C@@H](C)CC)C(C)C)C(C)C
B3: peptide of SEQ ID NO: 184 (peptide)
peptide: IVLSLD[dV]PIKLK(C18 diacid)QILLKQERQKKQRQQAEKNKQILAQV-NH2
modifications: N-terminus assumed
SMILES: CC[C@H](C)[C@H](N)C(=O)N[C@H](C(=O)N[C@@H](CC(C)C)C(=O)N[C@@H](CO)C(=O)N[C@@H](CC(C)C)C(=O)N[C@@H](CC(=O)O)C(=O)N[C@@H](C(=O)N1CCC[C@H]1C(=O)N[C@H](C(=O)N[C@@H](CCCCN)C(=O)N[C@@H](CC(C)C)C(=O)N[C@@H](CCCCNC(=O)CCCCCCCCCCCCCCCCC(=O)O)C(=O)N[C@@H](CCC(N)=O)C(=O)N[C@H](C(=O)N[C@@H](CC(C)C)C(=O)N[C@@H](CC(C)C)C(=O)N[C@@H](CCCCN)C(=O)N[C@@H](CCC(N)=O)C(=O)N[C@@H](CCC(=O)O)C(=O)N[C@@H](CCCNC(=N)N)C(=O)N[C@@H](CCC(N)=O)C(=O)N[C@@H](CCCCN)C(=O)N[C@@H](CCCCN)C(=O)N[C@@H](CCC(N)=O)C(=O)N[C@@H](CCCNC(=N)N)C(=O)N[C@@H](CCC(N)=O)C(=O)N[C@@H](CCC(N)=O)C(=O)N[C@@H](C)C(=O)N[C@@H](CCC(=O)O)C(=O)N[C@@H](CCCCN)C(=O)N[C@@H](CC(N)=O)C(=O)N[C@@H](CCCCN)C(=O)N[C@@H](CCC(N)=O)C(=O)N[C@H](C(=O)N[C@@H](CC(C)C)C(=O)N[C@@H](C)C(=O)N[C@@H](CCC(N)=O)C(=O)N[C@H](C(N)=O)C(C)C)[C@@H](C)CC)[C@@H](C)CC)[C@@H](C)CC)C(C)C)C(C)C
B4: peptide of SEQ ID NO: 227 (peptide)
peptide: IVLSLD[dV]PIKLK([γGlu-Palmitoyl])QKLLKQQRQRKERQQAEKNKRILERV-NH2
modifications: N-terminus assumed
SMILES: CCCCCCCCCCCCCCCC(=O)N[C@@H](CCC(=O)NCCCC[C@H](NC(=O)[C@H](CC(C)C)NC(=O)[C@H](CCCCN)NC(=O)[C@@H](NC(=O)[C@@H]1CCCN1C(=O)[C@H](NC(=O)[C@H](CC(=O)O)NC(=O)[C@H](CC(C)C)NC(=O)[C@H](CO)NC(=O)[C@H](CC(C)C)NC(=O)[C@@H](NC(=O)[C@@H](N)[C@@H](C)CC)C(C)C)C(C)C)[C@@H](C)CC)C(=O)N[C@@H](CCC(N)=O)C(=O)N[C@@H](CCCCN)C(=O)N[C@@H](CC(C)C)C(=O)N[C@@H](CC(C)C)C(=O)N[C@@H](CCCCN)C(=O)N[C@@H](CCC(N)=O)C(=O)N[C@@H](CCC(N)=O)C(=O)N[C@@H](CCCNC(=N)N)C(=O)N[C@@H](CCC(N)=O)C(=O)N[C@@H](CCCNC(=N)N)C(=O)N[C@@H](CCCCN)C(=O)N[C@@H](CCC(=O)O)C(=O)N[C@@H](CCCNC(=N)N)C(=O)N[C@@H](CCC(N)=O)C(=O)N[C@@H](CCC(N)=O)C(=O)N[C@@H](C)C(=O)N[C@@H](CCC(=O)O)C(=O)N[C@@H](CCCCN)C(=O)N[C@@H](CC(N)=O)C(=O)N[C@@H](CCCCN)C(=O)N[C@@H](CCCNC(=N)N)C(=O)N[C@H](C(=O)N[C@@H](CC(C)C)C(=O)N[C@@H](CCC(=O)O)C(=O)N[C@@H](CCCNC(=N)N)C(=O)N[C@H](C(N)=O)C(C)C)[C@@H](C)CC)C(=O)O

Each binder was assayed against rat CRF2R α receptor (rat, UniProt P47866 20-411) (assay: cell-based or functional assay).
Sequence of rat CRF2R α receptor (P47866 20-411): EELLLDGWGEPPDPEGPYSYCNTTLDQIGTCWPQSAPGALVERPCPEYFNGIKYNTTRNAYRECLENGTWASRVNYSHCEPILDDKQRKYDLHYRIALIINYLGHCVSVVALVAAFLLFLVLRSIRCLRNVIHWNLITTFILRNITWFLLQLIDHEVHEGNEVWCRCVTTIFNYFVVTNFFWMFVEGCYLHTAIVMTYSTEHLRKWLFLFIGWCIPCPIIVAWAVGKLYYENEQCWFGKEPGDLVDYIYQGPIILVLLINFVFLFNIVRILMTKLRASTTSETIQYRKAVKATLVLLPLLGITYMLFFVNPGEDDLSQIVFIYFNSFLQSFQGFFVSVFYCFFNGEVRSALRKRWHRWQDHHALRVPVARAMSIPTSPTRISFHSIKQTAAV

| EC50 [nM], 0% HSA (cAMP, A7R5 cells) | Binder |
| --- | --- |
| 0.04 nM | B1 |
| 0.12 nM | IVLSLD[dV]PTKLK([γGlu-Palmitoyl])QKLLKQERQRKERE[Aib]AEKNKRILERV-NH2 [peptide of SEQ ID NO: 225] |
| 1.12 nM | B2 |
| 0.42 nM | B3 |
| 0.61 nM | B4 |
